Source: the RNAGym collection of RNA variant scans (doi:10.1073/pnas.2313332121)
This sample holds only a part of the variants without activity.

B1: TPR 5TU (parent)
chain: GGAUCUUCUCGAUCUAACAAAAAAGACAAAUCUGCCACAAAGCUUGAGAGCAUCUUCGGAUGCAGAGGCGGCAGCCUUCGGUGGCGCGAUAGCGCCAACGUUCUCAACUAUGACACGCAAAACGCGUGCUCCGUUGAAUGGAGUUUAUCAUG

Variants of: B1
Assay: polymerase ribozyme fitness, log enrichment relative to wild type (log ratio); higher = more active; in vitro selection for triplet polymerase activity
Procedure, shortened: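 To select mutant libraries of each subunit of a heterodimeric triplet polymerase ribozyme, built by PCR and transcribed, each was annealed with a biotinylated primer, partner subunit and triplets, then incubated frozen at −7 °C. Extended constructs were gel-excised, captured on streptavidin beads and amplified by RT-PCR, in one round carried out in triplicate. Illumina sequencing of input and output libraries kept genotypes with ≥10 input reads and ≥1 read per output. Fitness is the base-2 logarithm of genotype enrichment relative to wild-type enrichment, from inverse-variance-weighted replicate averages.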

Variant	polymerase ribozyme fitness (log ratio)
C36U A66G G112A A142U	≤ -4.2
C36U C54U C87U C96G U146G G152A	≤ -4.2
A37C A97G U151A	≤ -4.2
A37C G80C G92A C129A	≤ -4.2
A37C	0.064
A37G	-1.24
C36G A47G U55C G84U C149A	≤ -4.2
A37C U53A U78A C85A	≤ -4.2
A37C C96G A106G	-0.258
A37C A49C C57G C75U A137U G141C	≤ -4.2
A37C G84A U101G G126C U135C	-3.6
A37C A49C C54A U78G C93U G124A	≤ -4.2
C36U U55A	-0.574
A37C A40U G83A C93G A142G	≤ -4.2
A37C C96U G100C U102C C118G C131G	≤ -4.2
A37C C43U A73C U77C C93U C116A U135G G136U	≤ -4.2
C36U G58A C87A C131U G143A	≤ -4.2
A37C C103G	-3.6
A37C A52U C96A	-2.87
C36A U56G C85A	≤ -4.2
A37C G86A C103A A120U	≤ -4.2

Variant	polymerase ribozyme fitness (log ratio)
A37C A49C A91G G94A C96U A106G	≤ -4.2
A37C G58C G65A	-3.6
C36A U56A C57A A122G U127C	≤ -4.2
A37C C95U G141C	-1.7
C36U C54A G58A G70A G84A C95A A115U G143U	≤ -4.2
C36U U55A A97G A121G U134G	-3.22
A37C A97U	-0.373
C36U G71A G94A	≤ -4.2
A37C A60C C85U G126C U146C	-2.23
C36U A40G C43G U55A A91C G126A G141U	≤ -4.2
A37C C54U A60C U61G C96U C99A G112A A115G	≤ -4.2
A37C C96G U101G A150C U151A	≤ -4.2
A37C C114U	-3.07
C36U A52G G70U G84A	-2.84
C36G U55G A73U C108U C118A G133U	-4.17
A37C C38U U145C	0.0837
C36G G86A G117U U130A G140A	≤ -4.2
C36U G62A C72U	-3.23
C36U C76U C85G	-2.42
C36U A52U C75G G88C C105A C114G A115G	≤ -4.2
A37C A115U	-1.16

Variant	polymerase ribozyme fitness (log ratio)
C36A U55A C95G A97U U135A	≤ -4.2
C36A U78A	≤ -4.2
A37C A47C G88A G100A A137U	≤ -4.2
A37C A47C	-1.24
A37C G92C G124C	-2.65
C36U C87G	≤ -4.2
C36U U61G	-2.22
C36U C54G A66C G84U C95A U101G	≤ -4.2
A37C G71U G86A A106U C132G U145G	≤ -4.2
A37C C38G C85U	-1.28
A37C U56A U90A C103G A121U C123U G141C	≤ -4.2
A37C A47U G58A U61G A91G A107C A113G A138U	≤ -4.2
A37C C57A	0.0979
A37C G94U A98U	-1.16
C36U U77G A98U U134A	≤ -4.2
C36U G59C C131U	-0.515
A37C G46A U61A G74A C93U A122U	≤ -4.2
C36U G42A C76U G143A	≤ -4.2
A37C A60C G67C C76G	-3.82
A37C C93U	-1.64
A37C C93A	-2.8

Variant	polymerase ribozyme fitness (log ratio)
A37C C57U G86A C95G C99G C131U	≤ -4.2
C36A U78C G80U C149U	≤ -4.2
C36U A142G	-2.16
C36U G58U G94A C105U C125U U135C	-3.89
C36U A41G C95A A122G	-0.35
A37C C95A A97C A121U	-2.71
A37C C85U G88C A137U	≤ -4.2
C36U G94A	-3.52
A37C U144A	-0.958
C36G A97G	-3.56
A37G A39C C87A C116U G136A	≤ -4.2
A37C A49G C93U	-2.86
C36U A64C G136A U145C A147C	≤ -4.2
C36U U44A A122C	-4.15
C36U C99U U145A	-1.47
C36G C54U G92A A110G G143A	≤ -4.2
C36U G128C G140U	≤ -4.2
C36U C54A G65C G67U G68U C95G A110C A113U C116U G143C C149A	≤ -4.2
C36G G62C G84U	≤ -4.2
C36A U82A U90G A98C	≤ -4.2
